Experimental data published in patent US20220372138A1 (IOMX THERAPEUTICS, published 2022).
Values belong to the binder of their own block, whether it stands above or below them.

Columns and labels:
[1] = molecular target: T1, extracellular domain (ECD) of human IGSF11 (VSIG3), recombinant (human, UniProt Q5DX21 23-241); test: ELISA RFU 0.5-1.0
T1 construct: biotinylated where captured on streptavidin; tags of the reagent not always stated; also called IGSF11 (ECD domain); ECD-IGSF11
T1 sequence: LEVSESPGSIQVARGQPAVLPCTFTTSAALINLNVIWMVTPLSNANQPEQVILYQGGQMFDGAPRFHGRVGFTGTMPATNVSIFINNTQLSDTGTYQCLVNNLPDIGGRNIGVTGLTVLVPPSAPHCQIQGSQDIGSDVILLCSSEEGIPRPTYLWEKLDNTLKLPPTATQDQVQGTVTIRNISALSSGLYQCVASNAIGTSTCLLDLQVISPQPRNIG

[2] = molecular target: T2, ECD of murine IGSF11, recombinant biotinylated (mouse, UniProt P0C673 23-240); test: ELISA RFU 0.5-1.0
T2 construct: whole entry named; also called Mouse IGSF11
T2 sequence: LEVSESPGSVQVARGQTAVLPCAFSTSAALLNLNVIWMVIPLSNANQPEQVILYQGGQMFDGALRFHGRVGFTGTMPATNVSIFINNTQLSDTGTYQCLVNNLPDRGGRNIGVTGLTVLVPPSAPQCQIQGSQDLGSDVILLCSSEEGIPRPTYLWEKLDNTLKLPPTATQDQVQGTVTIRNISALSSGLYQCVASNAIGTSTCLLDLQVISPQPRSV

[3] = molecular target: T3, full-length ECD of human IGSF11 fused to murine Fc (human, UniProt Q5DX21 23-241); test: IgG ELISA;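 further: ELISA binding of IgG antibodies to plate-coated IGSF11 Fc-fusion proteins (full-length ECD, IgV or IgC2 domain), detected via HRP-labelled anti-human IgG with TMB development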
T3 construct: also called Fc-fusion IGSF11 ECD; not shown: murine Fc
T3 sequence: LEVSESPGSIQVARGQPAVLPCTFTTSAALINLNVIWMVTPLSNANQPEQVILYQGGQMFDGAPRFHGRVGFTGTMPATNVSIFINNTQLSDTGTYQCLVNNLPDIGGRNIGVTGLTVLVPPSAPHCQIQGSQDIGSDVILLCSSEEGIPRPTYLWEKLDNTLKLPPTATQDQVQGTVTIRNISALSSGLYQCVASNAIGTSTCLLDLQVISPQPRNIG

[4] = molecular target: T4, IgV domain of human IGSF11 fused to murine IgG2a Fc (human, UniProt Q5DX21 23-143); test: IgG ELISA;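 further: ELISA binding of IgG antibodies to plate-coated IGSF11 Fc-fusion proteins (full-length ECD, IgV or IgC2 domain), detected via HRP-labelled anti-human IgG with TMB development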
T4 construct: not shown: murine IgG2a Fc-region
T4 sequence: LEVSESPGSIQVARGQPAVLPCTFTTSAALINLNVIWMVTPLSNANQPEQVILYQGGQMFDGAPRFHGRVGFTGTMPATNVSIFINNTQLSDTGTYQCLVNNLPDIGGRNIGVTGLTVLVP

[5] = molecular target: T5, human IGSF11 (VSIG3) ECD, His-tagged (human, UniProt Q5DX21 23-241); test: IgG1 ELISA EC50 <0.02 nM
T5 construct: in part bought (SinoBiological 13094-H08H); also called HIS-IGSF11; IGSF11-HIS; not shown: His tag
T5 sequence: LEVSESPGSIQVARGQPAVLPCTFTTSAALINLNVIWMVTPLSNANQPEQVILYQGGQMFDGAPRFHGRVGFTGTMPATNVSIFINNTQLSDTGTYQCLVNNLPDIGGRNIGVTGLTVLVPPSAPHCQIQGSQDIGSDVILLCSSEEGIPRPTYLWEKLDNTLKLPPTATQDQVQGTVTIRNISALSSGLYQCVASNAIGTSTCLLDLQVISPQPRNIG

[6] = molecular target: T2, ECD of murine IGSF11, recombinant …; test: ELISA RFU>1.0
[7] = molecular target: T6, human IGSF11 (VSIG3) expressed on cells (human, UniProt Q5DX21 23-431); test: FACS, DMS 273 cells with scrambled control siRNA (SC)
T6 sequence: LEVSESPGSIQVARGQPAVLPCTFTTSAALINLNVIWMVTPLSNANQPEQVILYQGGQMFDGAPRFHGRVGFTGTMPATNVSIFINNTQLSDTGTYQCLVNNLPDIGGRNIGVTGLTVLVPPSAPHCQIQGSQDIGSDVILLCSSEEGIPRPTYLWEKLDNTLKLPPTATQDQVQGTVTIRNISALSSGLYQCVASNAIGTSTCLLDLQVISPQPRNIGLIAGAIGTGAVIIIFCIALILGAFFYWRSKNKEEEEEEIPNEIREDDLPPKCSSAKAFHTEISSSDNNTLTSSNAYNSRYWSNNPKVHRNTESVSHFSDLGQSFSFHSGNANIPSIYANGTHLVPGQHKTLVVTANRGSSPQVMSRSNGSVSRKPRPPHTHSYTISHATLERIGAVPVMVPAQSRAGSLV

[8] = molecular target: T6, human IGSF11 (VSIG3) expressed on cells; test: FACS, M579-A2-luc cells with scrambled control siRNA (SC)
[9] = molecular target: T6, human IGSF11 (VSIG3) expressed on cells; test: FACS, DMS 273 cells with IGSF11 siRNA (KD, knock-down control)
[10] = molecular target: T6, human IGSF11 (VSIG3) expressed on cells; test: FACS, M579-A2-luc cells with IGSF11 siRNA (KD, knock-down control)

EC50 [3]: < 1 nM | EC50 [4]: < 1 nM
B2: C-008 (IgG1 format) (antibody, V domains shown)
VH: EVQLLESGGGLVQPGGSLRLSCAASGFTFSSYAMSWVRQAPGKGLEWVSAISGSGGSTYYADSVKGRFTISRDNSKNTLYLQMNSLRAEDTAVYYCTTDNGHNRDWGQGTLVTVSS
VL: ASVLTQPPSVSAAPGQKVTISCSGSSSNIGNNYVSWYQQLPGTAPKLLIYDNNKRPSGIPDRFSGSKSGTSATLGITGLQAEDEADYYCGTWTRSSGVFGGGTKLTVL

ELISA binding signal (RFU) [6]: > 1 rfu | ELISA binding signal (RFU) [1]: 0.5 to 1 rfu
B7: A-035 (scFv format) (scFv, V domains shown)
VH: QVQLVQSGAEVKKPGASVKVSCKASGYTFTGYYMHWVRQAPGQGLEWMGWINPNSGNTGYAQKFQGRVTMTRNTSISTAYMELSSLRSEDTAVYYCARGRLERGYWYFDLWGRGTLVTVSS
VL: NFMLTQPHSVSESPGRTVTISCTRSSGSITSNYVQWYQQRPGSAPTILIYEDKERPSEVPDRFSGSIDISSNSASLTISGLKTEDEADYYCQSYGGTSQGVLFGGGTKVTVL
notes: scFv

EC50 [3]: 1 to 20 nM | EC50 [4]: < 1 nM
B8: C-026 (IgG1 format) (antibody, V domains shown)
VH: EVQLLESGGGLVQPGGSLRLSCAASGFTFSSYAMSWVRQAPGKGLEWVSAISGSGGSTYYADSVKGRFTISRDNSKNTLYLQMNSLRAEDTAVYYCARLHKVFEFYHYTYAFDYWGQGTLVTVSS
VL: ASVLTQPPSVSAAPGQKVTISCSGSSSNIGNNYVSWYQQLPGTAPKLLIYDNNKRPSGIPDRFSGSKSGTSATLGITGLQAEDEADYYCASYSSETSGWVFGGGTKLTVL

EC50 [3]: 1 to 20 nM | EC50 [4]: < 1 nM
B9: C-025 (IgG1 format) (antibody, V domains shown)
VH: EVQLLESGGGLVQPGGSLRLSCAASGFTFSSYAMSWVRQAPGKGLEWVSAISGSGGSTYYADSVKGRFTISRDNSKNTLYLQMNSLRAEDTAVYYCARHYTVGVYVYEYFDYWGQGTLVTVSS
VL: SYELTQPPSVSVSPGQTASITCSGDKLGDKYASWYQQKPGQSPVLVIYQDSKRPSGIPERFSGSNSGNTATLTISGTQAEDEADYYCQSYATAGFVFGGGTKLTVL

ELISA binding signal (RFU) [6]: > 1 rfu | ELISA binding signal (RFU) [1]: 0.5 to 1 rfu
B10: A-022 (scFv format) (scFv, V domains shown)
VH: EVQLLESGPGLVKPSQTLSLTCTVSGGSISSGGYYWSWIRQHPGKGLEWIGYIYYSGSTYYNPSLKSRVTISVDTSKNQFSLKLSSVTAADTAVYYCARASRSTDYYFDYWGQGTLVTVSS
VL: QPGLTQPPSMSYGLGQTATLTCTGNRNNIGDQGAAWLQQHQGHPPKLLSYRNNNGPSGISERLSASRSGNTASLTISGLQPEDEADYYCSAWDSSLRAWVFGGGTKLTVL
notes: scFv

EC50 [3]: 1 to 20 nM | EC50 [4]: < 1 nM
B11: C-009 (IgG1 format) (antibody, V domains shown)
VH: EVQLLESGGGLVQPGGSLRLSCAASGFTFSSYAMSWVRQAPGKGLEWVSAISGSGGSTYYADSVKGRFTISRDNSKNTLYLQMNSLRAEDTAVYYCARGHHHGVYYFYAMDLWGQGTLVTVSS
VL: SYELTQPPSVSVSPGQTASITCSGDKLGDKYASWYQQKPGQSPVLVIYQDSKRPSGIPERFSGSNSGNTATLTISGTQAEDEADYYCQSYSGSSTLHVFGGGTKLTVL

EC50 [3]: 1 to 20 nM | EC50 [4]: 1 to 20 nM
B12: C-024 (IgG1 format) (antibody, V domains shown)
VH: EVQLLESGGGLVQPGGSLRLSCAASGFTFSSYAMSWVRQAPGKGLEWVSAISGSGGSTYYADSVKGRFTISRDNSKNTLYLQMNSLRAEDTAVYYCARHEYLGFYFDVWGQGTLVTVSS
VL: SYELTQPPSVSVSPGQTASITCSGDKLGDKYASWYQQKPGQSPVLVIYQDSKRPSGIPERFSGSNSGNTATLTISGTQAEDEADYYCLASHRLTLNYVFGGGTKLTVL

EC50 [5]: < 0.02 nM
B13: A-016 (IgG1 format) (antibody, V domains shown)
VH: QVQLQESGAEVKKPGASVKVSCKASGYTFTGYYMHWVRQAPGQGLEWMGGIIPIFGTANYAQKFQGRVTITADESTSTAYMELSSLRSEDTAVYYCAGAGMELTRSGAYYYYGMDVWGQGTTVTVSS
VL: QSALTQPASVSGSPGQSITISCTGTSSDIGGYTFVSWYQQHPGKAPKVMIHDVNNRPSGISNRFSGSKSGNTASLTISGLQAEDEADYYCSSVTSTNTYVFGTGTKVTVL
notes: human IgG1 format

% binding (FACS heat-map) [7]: 5.97% | % binding (FACS heat-map) [8]: 1.17% | % binding (FACS heat-map) [9]: 1.6% | % binding (FACS heat-map) [10]: 1.3%
B14: A-015 (IgG1 format) (antibody, V domains shown)
VH: not shown
VL: QPVLTQSPSASASLGASVKLTCTLSSGHTNYAIAWRQQQPGKAPRYLMLLNSDGSHTRGGGIPDRFSGSSSGAERYLTISSLQSEDEADYYCMIWHNNAWVFGGGTKLAVL
notes: human IgG1 format

ELISA binding signal (RFU) [1]: 0.5 to 1 rfu | ELISA binding signal (RFU) [2]: 0.5 to 1 rfu
B15: A-015 (scFv format) (scFv, V domains shown)
VH: not shown
VL: QPVLTQSPSASASLGASVKLTCTLSSGHTNYAIAWRQQQPGKAPRYLMLLNSDGSHTRGGGIPDRFSGSSSGAERYLTISSLQSEDEADYYCMIWHNNAWVFGGGTKLAVL
notes: scFv

Further lines, the binder ahead of its results:

B1: A-010 (scFv format) (scFv, V domains shown)
VH: QVQLVQSGAEVKKPGASVKVSCKASGYTFTSYGISWVRQAPGQGLEWMGWISAYNGNTNYAQKLQGRVTMTTDTSTSTAYMELRSLRSDDTAVYYCARVPAWSGQFDYWGQGTLVTVSS
VL: QSALTQPASVSGSPGQSITISCTGSSSDVGGYNYVSWYQQYPGKAPKLMIYDVRSRPSGVSNRFSGSKSGNTASLTISGLQAEDEADYYCTSYTSSNTLVIFGGGTKVTVL
notes: scFv
ELISA binding signal (RFU) [1]: 0.5 to 1 rfu | ELISA binding signal (RFU) [2]: 0.5 to 1 rfu

B3: A-006 (scFv format) (scFv, V domains shown)
VH: EVQLVESGGGLIQPGGSLRLSCAASGFTVSSNYMSWVRQAPGKGLEWVSVIYSGGSTYYADSVKGRFTISRDNSKNTLYLQMNSLRAEDTAVYYCARGNPYYYGDLQVNFDYWGQGTLVTVSS
VL: QAVVTQEPSLTVSPGGTVTLTCASSTGAVTSGYYPNWFQQKPGQAPRPLIYSTSNKHSWTPARFSGSLLGGKAALTLSGVQPDDEAEYYCLLYYGGDWVFGGGTKLTVL
notes: scFv
ELISA binding signal (RFU) [1]: 0.5 to 1 rfu | ELISA binding signal (RFU) [2]: 0.5 to 1 rfu

B4: A-012 (scFv format) (scFv, V domains shown)
VH: EVQLLESGGGLIQPGGSLRLSCAVSGFTVSSNYMSWVRQAPGKGLEWVSVIYSGGSTYYADSVKGRFTISRDNSKNTLYLQMNSLRAEDTAVYYCARGNPYYYGDLQVNFDYWGQGTLVTVSS
VL: QAVVTQEPSLTVSPGGTVTLTCASSTGAVTSGYYPNWFQQKPGQAPRALIYSTSNKHSWTPARFSGSLLGGKAALTLSGVQPEDEAEYYCLLYYGGAWVFGGGTKLTVL
notes: scFv
ELISA binding signal (RFU) [1]: 0.5 to 1 rfu | ELISA binding signal (RFU) [2]: 0.5 to 1 rfu

B5: A-013 (scFv format) (scFv, V domains shown)
VH: EVQLVESGGGLIQPGGSLRLSCAASGFTVSSNYMSWVRQAPGKGLEWVSVIYSGGSTYYADSVKGRFTISRDNSKNTLYLQMNSLRAEDTAVYYCARGNPYYYGDLQVNFDYWGQGTLVTVSS
VL: QAVVTQEPSLTVSPGGTVTLTCASSTGAVTSAYYPNWFQQKPGQAPRALIYSTSNKHSWTPARFSGSLLGGKAALTLSGVQPEDEADYYCLLYYGGAWVFGGGTKLTVL
notes: scFv
ELISA binding signal (RFU) [1]: 0.5 to 1 rfu | ELISA binding signal (RFU) [2]: 0.5 to 1 rfu

B6: A-001 (IgG1 format) (antibody, V domains shown)
VH: EVQLVESGGGLVKPGGSLRLSCAASGFTFSSYSMNWVRQAPGKGLEWVSSISSSSSYIYYADSVKGRFTISRDNAKNSLYLQMNSLRAEDTAVYYCVRSIIVQALGITSVFDIWGQGTMVTVSS
VL: AIRLTQSPSSLSASVGDRVTISCRASQIISNHLNWYQQKPGKAPKLLIYAASRLQTGVPSRFSGSGSETDYTLTISSLQPEDFATYYCQQSYSNPRTFGHGTKVEIK
notes: human IgG1 format
EC50 [5]: < 0.02 nM

B16: A-004 (scFv format) (scFv, V domains shown)
VH: EVQLVESGGGLVKPGGSLRLSCAASGFTFSSYSMNWVRQAPGKGLEWVSSISSSSSYIYYADSVKGRFTISRDNAKNSLYLQMNSLRAEDTAVYYCARGQLLWFGESALIDAFDIWGQGTMVTVSS
VL: EIVLTQSPSSLSASVGDRVTITCRASQSISSYLNWYQLKPGKAPKLLIYAASILQSGVPSRFSGSGSGTDFTLTISSLQPEDFAAYYCQQSYSTPRTFGQGTKLEIK
notes: scFv
ELISA binding signal (RFU) [6]: > 1 rfu | ELISA binding signal (RFU) [1]: 0.5 to 1 rfu

B17: A-007 (scFv format) (scFv, V domains shown)
VH: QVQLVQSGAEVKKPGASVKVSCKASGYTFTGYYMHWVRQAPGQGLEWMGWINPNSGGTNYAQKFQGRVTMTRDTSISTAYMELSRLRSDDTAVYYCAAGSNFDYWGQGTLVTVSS
VL: QSALTQPASVSGSPGQSITIACTGSSSDIGSFSYVSWYQQRPGKAPTLIIYGVNNRPLGVSRRFSGSKSGNTASLSISGLQAEDEADYYCSSYTRRSTVIFGGGTKLTVL
notes: scFv
ELISA binding signal (RFU) [1]: 0.5 to 1 rfu | ELISA binding signal (RFU) [2]: 0.5 to 1 rfu
